# Results published in the DeepSol protein solubility set.
# Assay: soluble on expression in E. coli; label from the status in PepcDB or PDB records
row,Sequence,soluble on expression in E. coli
1,MLRVYHSNRLDVLEALMEFIVERERLDDPFEPEMILVQSTGMAQWLQMTLSQKFGIAANIDFPLPASFIWDMFVRVLPEIPKESAFNKQSMSWKLMTLLPQLLEREDFTLLRHYLTDDSDKRKLFQLSSKAADLFDQYLVYRPDWLAQWETGHLVEGLGEAQAWQAPLWKALVEYTHQLGQPRWHRANLYQRFIETLESATTCPPGLPSRVFICGISALPPVYLQALQALGKHIEIHLLFTNPCRYYWGDIKDPAYLAKLLTRQRRHSFEDRELPLFRDSENAGQLFNSDGEQDVGNPLLASWGKLGRDYIYLLSDLESSQELDAFVDVTPDNLLHNIQSDILELENRAVAGVNIEEFSRSDNKRPLDPLDSSITFHVCHSPQREVEVLHDRLLAMLEEDPTLTPRDIIVMVADIDSYSPFIQAVFGSAPADRYLPYAISDRRARQSHPVLEAFISLLSLPDSRFVSEDVLALLDVPVLAARFDITEEGLRYLRQWVNESGIRWGIDDDNVRELELPATGQHTWRFGLTRMLLGYAMESAQGEWQSVLPYDESSGLIAELVGHLASLLMQLNIWRRGLAQERPLEEWLPVCRDMLNAFFLPDAETEAAMTLIEQQWQAIIAEGLGAQYGDAVPLSLLRDELAQRLDQERISQRFLAGPVNICTLMPMRSIPFKVVCLLGMNDGVYPRQLAPLGFDLMSQKPKRGDRSRRDDDRYLFLEALISAQQKLYISYIGRSIQDNSERFPSVLVQELIDYIGQSHYLPGDEALNCDESEARVKAHLTCLHTRMPFDPQNYQPGERQSYAREWLPAASQAGKAHSEFVQPLPFTLPETVPLETLQRFWAHPVRAFFQMRLQVNFRTEDSEIPDTEPFILEGLSRYQINQQLLNALVEQDDAERLFRRFRAAGDLPYGAFGEIFWETQCQEMQQLADRVIACRQPGQSMEIDLACNGVQITGWLPQVQPDGLLRWRPSLLSVAQGMQLWLEHLVYCASGGNGESRLFLRKDGEWRFPPLAAEQALHYLSQLIEGYREGMSAPLLVLPESGGAWLKTCYDAQNDAMLDDDSTLQKARTKFLQAYEGNMMVRGEGDDIWYQRLWRQLTPETMEAIVEQSQRFLLPLFRFNQS,soluble
2,MLSGREMSMSHINYNHLYYFWHVYKEGSVVGAAEALYLTPQTITGQIRALEERLQGKLFKRKGRGLEPSELGELVYRYADKMFTLSQEMLDIVNYRKESNLLFDVGVADALSKRLVSSVLDAAVVEDEQIHLRCFESTHEMLLEQLSQHKLDMIISDCPIDSTQQEGLFSMKIGECGVSFWCTNPLPEKPFPACLEERRLLIPGRRSMLGRKLLNWFNSQGLNVEILGEFDDAALMKAFGATHNAIFVAPSLYANDFYNDDSVVEIGRVENVMEEYHAIFAERMIQHPAVQRICNTDYSALFTPASK,not soluble
3,MLSKKLHDALNDQMNFEFYSAHAYMAMAAYCTAESYDGFANFFLVQAEEERFHAMKLYNYINDRGERAIITGFDNPNNEYESVLNAFEVALEHEREVTKRIYNLSDIAWDEREHATITFLKWFVDEQVEEEASFDSIIQKLKRITSDSNALFMLDAELEKRTFTPPAE,not soluble
4,MLSKSLALGRRLTKISSSVKSISSITFKTVDGKPRDALTIHNVDFVIDPDEKMVDEYMKVYGNQRFNFKRNDIDIWRKSFKDSYSLWLVCLKGTNKIVQMSHVLNFPPLLSHNDILHQYHGFFWVDPDYRGKDSMAIMDYIEKHRARNQSDNDAGTFLTTAVTMWTKMHGHADYKHIMYVSYYKPDEMQIPEDLNLDGIFLKNATEVPDMDIVKYDNTVFPYERSKYMLNLLRDPEGFGKVAYDNNGKVIGFGNVIIYPSGECVLTPLYADDSKVAQAIFKSILKEIPLNDKKLLRFQIRSIDQCEGGFEWIQPFVKNPIRKEIMGHMAGSSHPPTVNYKKTYANTPYTTCVI,not soluble
5,MLSLDQIPHHIRHGIVGSRLIQIRGRVTQVTGTLLKAVVPGVRIGELCYLRNPDNSLSLQAEVIGFAQHQALLIPLGEMYGISSNTEVSPTGTMHQVGVGEHLLGQVLDGLGQPFDGGHLPEPAAWYPVYQDAPAPMSRKLITTPLSLGIRVIDGLLTCGEGQRMGIFAAAGGGKSTLLASLIRSAEVDVTVLALIGERGREVREFIESDLGEEGLRKAVLVVATSDRPSMERAKAGFVATSIAEYFRDQGKRVLLLMDSVTRFARAQREIGLAAGEPPTRRGYPPSVFAALPRLMERAGQSSKGSITALYTVLVEGDDMTEPVADETRSILDGHIILSRKLAAANHYPAIDVLRSASRVMNQIVSKEHKTWAGDLRRLLAKYEEVELLLQIGEYQKGQDKEADQAIERMGAIRGWLCQGTHELSHFNETLNLLETLTQ,not soluble
6,MLSNNVNPVVGLSYRPLPETPPSGQAAAHPSMRLLEPNNDEFVRSVASPRLHHSSEALREVKHDVRQFQASGDRSLQQLRDLEVALNHWEASQPREFAKRGGMVAELRTAIDAYKQQLHEQAPSHANLDVKWLDGLRAGSMALQGDVKVWMQNLEDLHTRRPDEFAARLQQSTDALYSHLEAQWAKQHGTPPTASDVAGMPQWQEYTAMLRERFAGLDTIRPNLTAEENGVAILKTQTQLLALQRAQEALQASLADGVSHQGDVGLLRTQLLAGMVEGLIALQQADDDSALWSRPSAADSGGRLSVEAGAKASTDFEAPASKGELLRGKGISGEAVLEAFANIEMSVSGSRAGAAGEAEGSLRLYGESTARAEVSGSFEPFALSGSIGREEADGDTAASANPVLSLNVSAELSSKLGLEAQGSVTLGSLLKLDAEGRAEVGASAEVSGTAAIDKRSDGLGVRLEGQAEAFAGLKAEGTLTANLLHSKYADAHGLTASVTGSANVGLGATAEGKLVASPGQFEMGGEVGTTLGVGGNIGWNSKVDVNASTAYAYELASAAMARFDALRASQLDHDAKTSGNESQLNRLAANLQSHIDATSQKLDALNSAGVESRIRKVDGFAAGDGAQAAAGLAAQMALVGTGADLSHDIKITALNLRA,not soluble
7,MLSNQQIRNFSRGVGHLRRRAAKNNVIKVRPEELRPFFNQYSVLPNGIQNDADAKLFSKELQPGERKLLFDALRKITADQYNDHKKVVEVTIDHEDLVKVWYINFIPMFVYGCLDEAFLIIGGESINK,not soluble
8,MLSRAGKHRQLPSLRASQAEASPICSELEDKHKNVQEPDGISNHFLQEKKFAGSESKEYKRKDVVLYREKLLAPEVTNLVSREQMMMHPRDQYLHVLSPYCYSAIEVSHAVFSIFAYIVCDVNWSREYCSKHTTCKQDFKTMIIAVMREYLSMGEAADISRLPRAAMFNLQQAGQLATPTASGTQRRAEPETYVDLHALSDKINHLKTHCNYQIRRDRAFPPMVNLFEIEPRVPVKMSYFLAECKTYGIHQCLHPVSATVKQIDQAFLPAWKARVLFMLGWMDNFFDEDMDDLKRCIRKAINFKVPLKTWESEEDLMVVILEQNQAKLKLARECLTTISKCEHADPHDWLHCNRKRRERHFIVCEYKNPGIWHSSEILKISLKILRQCMGHATLDLKEVNVKSENKIGSDASPDVPLDKKKLKRQKQKLRKAAEPPEPTPPPPPPVIPVPEAKPCEKCFRTSERCNKANAELKTSLNKIKILEKKLSAEKRAFKENQETWEKKLEELQTELQAKERTIQEFQDKVAPKCAESVSDGFLRDGEELIATFDVTSSNATEEFESECIICREDIDLENGTVQCPRCTEIYHSHCATQWLSQKPTCPKCIFHIGHINEFPSLV,not soluble
9,MLSRICGNGIRLTRTRLQFQPSIVTFRDYSNPAPKRGFLNNLIDNVRDEMQKNKELQEHQQQLKARMQELNESDALKDARKKFEIVEKETLKSSEVVKQKIEELSDHMKKMVHEIQKTEAGKKMTEAGAEALKQARKAAEHVEKVAEKVGDTEVYKHVSTSMKTVKDEIDNIADVRMYSRPEALTKRTDGFDLEKERVVEANDSATDVTLHKDSKWYSGWKNFSESNTYYHKLLDWKIKYDESDNMAVRMMRGVTEKIGSVFSGQNEVSEVLTEIHKIDANFDKQEWLRFCETKIIPNILEAFIRFDLEVLQSWCHERAYTQLSTVVKEYQKMHFSTKDSRIIDINKVEMATGKMMEQGPVLIISFQVYMINVTKNADGKVVEGDPDNPKRINHIWVLCRDVEEYNPALAWKLLEVHMQETPLAL,not soluble
10,MLSRLTSRNVLLARNVATAATQERQKIKVDNPVVDLDGDEMTRIIWKEIKNKLILPYLDLDIKYYDLGLEYRDETNDQVTIDAAHAILEHSVGIKCATITPDEARIKEFNLKKMWLSPNGTIRNILGGTVFREPILCKNIPRLVPGWTQPITIGRHAFGDQYKCTDLVIPSGSTLQLLVNKPDGSKDVHNVYDFKKSGGVGLAMYNTDESIKGFAHSCFQYALMKQWPLYLSTKNTILKKYDGRFKDIFQDIYEKKYEADFKNNKIWYEHRLIDDQVAQALKSSGGFVWACKNYDGDVQSDIVAQGYGSLGLMSSVLMCPDGKTIEAEAAHGTVTRHYREHQKGNSTSTNPIASIFAWTRGLHHRGVLDNNEALKTFSLTLEKACIDTVEEGKMTKDLSICIHGTKKGTEKGAYLITEDFLSAIDTKMAELMRQD,not soluble
11,MLSVRTPLATIADQQQLQLSPLKRLTLADKENTPPTLSSTRVLASKAARRIFQDSAELESKAPTNPSVEDEPLLRENPRRFVVFPIEYHDIWQMYKKAEASFWTAEEVDLSKDIQHWEALKPDERHFISHVLAFFAASDGIVNENLVERFSQEVQVTEARCFYGFQIAMENIHSEMYSLLIDTYIKDPKEREYLFNAIETMPCVKKKADWALRWIGDKEATYGERVVAFAAVEGIFFSGSFASIFWLKKRGLMPGLTFSNELISRDEGLHCDFACLMFKHLVHKPAEQRVREIITNAVRIEQEFLTEALPVKLIGMNCTLMKQYIEFVADRLMLELGFNKIFRVENPFDFMENISLEGKTNFFEKRVGEYQRMGVMSNSTENSFTLDADF,soluble
12,MLTEKTKKELIRLSKVNNYIIKVETNQNFKHQSKCGDQILFQIIETNNGKFNLKHHASGCIVLLASANALNKLCNNKAKSEILNLVQKVINSNFANLDEIDVSLKIFNVFTNTNRKDCFLLPYKSLKDSLESYKPLRRTIRLEHHHHHH,not soluble
13,MLTLKNDYLTVKINPLGAELTSVVDNETQLEYMWQADKAYWGRHAPILFPIVGRLQDNQYRLGERTYHMTQHGFARDREFTVIDQTPTQVTLELTADDQSRALFPADFTLTVTFELIDHQLRFSADVFNPATTTLPFSIGAHPGFNVPLGDALADFTDYQVTVSPKKTYQRVPLVGPYSDSQHTEPLDLTQPLGLDHGLFAHDAQVLTLDSETTVMLSTPTNDHGVALTTTAPYLGIWSPYPKQAPFVCLEPWWGLADDVQATGELTTKVAIHHLAAQQHFQAAYQVTYFLEHHHHHH,not soluble
14,MLTLLRRGLLVFLAAFPLLSMAAPTPQQVVQGTVDELLSDIKANKAAYKADPQKLYATLDRILGPVVDAEGIAKSVMTVKYSRQASPEQIKRFEEVFKNSLMQFYGNALLEYDNQDIRVLPSSAKPSDDRASVNMEIRDSKGTVYPVSYTMTNLAGGWKVRNVIINGINIGKLFRDQFADTMQKNRNDLEKTIAGWGEVVAKAKETAKAEEAGAKAAALEHHHHHH,soluble
15,MLTPERHQMILQLVKEQKVVKLQQLVERTESSESTIRRDLAQLEKQRLLKRVHGGAAVLTGKGQEPTMVEKSSKNIQIKQQIAKYAASVIEQGDCIYLDAGSTTFEMIPFLINKDVTVVTNGLMHIEALVENNIRAYLLGGMMKSRTKALIGAMAQESMQKYRFDKCFLGANGVHEQLGFTTPDPEEALLKQMALTLANEGYFLIDESKFSEVAFAKIANVEDANIITNHLEIDLEKYKQQTNVIEADKQLEHHHHHH,soluble
16,MLTSFGQILRKLFCIDCSERLLDMADKLGVSVAFLSSVKIGKKSVPVGIFVRTLENFSQQDLAEFKKLLEKVGKKRGTLYRHVGKSYSRTFIYTSRTLKKHT,not soluble
